Data taken from patent US20220033505A1 (Janssen / Centocor, published 2022).

B1: HC3B238 (CD3W246-HL-scFv-Fc x MHGB738-Fab-Fc) (bispecific antibody, human IgG1, kappa, L234A L235A)
scFv: EVQLVESGGGLVKPGGSLRLSCAASGFTFSRYNMNWVRQAPGKGLEWVSSISTSSNYIYYADSVKGRFTFSRDNAKNSLDLQMSGLRAEDTAIYYCTRGWGPFDYWGQGTLVTVSSGGSEGKSSGSGSESKSTGGSDIQMTQSPSSLSASVGDRVTITCRARQSIGTAIHWYQQKPGKAPKLLIKYASESISGVPSRFSGSGSGTDFTLTISSVQPEDFATYYCQQSGSWPYTFGQGTKLEIKEPKSSDKTHTCPPCPAPEAAGGPSVFLFPPKPKDTLMISRTPEVTCVVVSVSHEDPEVKFNWYVDGVEVHNAKTKPREEQYNSTYRVVSVLTVLHQDWLNGKEYKCKVSNKALPAPIEKTISKAKGQPREPQVYVYPPSREEMTKNQVSLTCLVKGFYPSDIAVEWESNGQPENNYKTTPPVLDSDGSFALVSKLTVDKSRWQQGNVFSCSVMHEALHNHYTQKSLSLSPG
heavy: QVQLQQSGPGLVKPSQTLSLTCAISGDSVSSNRAAWNWIRQSPSRGLEWLGRTYYRSKWYNDYAVSVKSRITINPDTSKNQISLQLNSVTPEDTAVYYCARVRPGIPFDYWGQGTPVTVSSASTKGPSVFPLAPSSKSTSGGTAALGCLVKDYFPEPVTVSWNSGALTSGVHTFPAVLQSSGLYSLSSVVTVPSSSLGTQTYICNVNHKPSNTKVDKKVEPKSCDKTHTCPPCPAPEAAGGPSVFLFPPKPKDTLMISRTPEVTCVVVSVSHEDPEVKFNWYVDGVEVHNAKTKPREEQYNSTYRVVSVLTVLHQDWLNGKEYKCKVSNKALPAPIEKTISKAKGQPREPQVYVLPPSREEMTKNQVSLLCLVKGFYPSDIAVEWESNGQPENNYLTWPPVLDSDGSFFLYSKLTVDKSRWQQGNVFSCSVMHEALHNHYTQKSLSLSPG
light: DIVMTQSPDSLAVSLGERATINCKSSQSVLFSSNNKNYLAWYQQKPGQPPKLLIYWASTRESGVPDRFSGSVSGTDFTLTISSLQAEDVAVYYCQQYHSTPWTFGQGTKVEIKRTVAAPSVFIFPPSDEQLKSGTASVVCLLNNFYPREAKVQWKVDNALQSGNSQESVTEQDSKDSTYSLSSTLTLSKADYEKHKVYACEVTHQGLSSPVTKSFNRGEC
B2: HC3B237 (CD3W246-LH-scFv-Fc x MHGB738-Fab-Fc) (bispecific antibody, human IgG1, kappa, L234A L235A)
scFv: DIQMTQSPSSLSASVGDRVTITCRARQSIGTAIHWYQQKPGKAPKLLIKYASESISGVPSRFSGSGSGTDFTLTISSVQPEDFATYYCQQSGSWPYTFGQGTKLEIKGGSEGKSSGSGSESKSTGGSEVQLVESGGGLVKPGGSLRLSCAASGFTFSRYNMNWVRQAPGKGLEWVSSISTSSNYIYYADSVKGRFTFSRDNAKNSLDLQMSGLRAEDTAIYYCTRGWGPFDYWGQGTLVTVSSEPKSSDKTHTCPPCPAPEAAGGPSVFLFPPKPKDTLMISRTPEVTCVVVSVSHEDPEVKFNWYVDGVEVHNAKTKPREEQYNSTYRVVSVLTVLHQDWLNGKEYKCKVSNKALPAPIEKTISKAKGQPREPQVYVYPPSREEMTKNQVSLTCLVKGFYPSDIAVEWESNGQPENNYKTTPPVLDSDGSFALVSKLTVDKSRWQQGNVFSCSVMHEALHNHYTQKSLSLSPGK
heavy: QVQLQQSGPGLVKPSQTLSLTCAISGDSVSSNRAAWNWIRQSPSRGLEWLGRTYYRSKWYNDYAVSVKSRITINPDTSKNQISLQLNSVTPEDTAVYYCARVRPGIPFDYWGQGTPVTVSSASTKGPSVFPLAPSSKSTSGGTAALGCLVKDYFPEPVTVSWNSGALTSGVHTFPAVLQSSGLYSLSSVVTVPSSSLGTQTYICNVNHKPSNTKVDKKVEPKSCDKTHTCPPCPAPEAAGGPSVFLFPPKPKDTLMISRTPEVTCVVVSVSHEDPEVKFNWYVDGVEVHNAKTKPREEQYNSTYRVVSVLTVLHQDWLNGKEYKCKVSNKALPAPIEKTISKAKGQPREPQVYVLPPSREEMTKNQVSLLCLVKGFYPSDIAVEWESNGQPENNYLTWPPVLDSDGSFFLYSKLTVDKSRWQQGNVFSCSVMHEALHNHYTQKSLSLSPG
light: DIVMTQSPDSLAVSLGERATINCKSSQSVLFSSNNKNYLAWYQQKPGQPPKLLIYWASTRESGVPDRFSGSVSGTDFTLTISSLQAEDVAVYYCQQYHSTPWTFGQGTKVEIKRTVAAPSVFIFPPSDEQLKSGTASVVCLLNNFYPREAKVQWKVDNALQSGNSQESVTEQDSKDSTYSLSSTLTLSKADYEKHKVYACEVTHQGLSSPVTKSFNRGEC
B3: HC3B236 (CD3B450-LH-scFv-Fc x MHGB738-Fab-Fc) (bispecific antibody, human IgG1, kappa, L234A L235A)
scFv: QSALTQPASVSGSPGQSITISCTGTSSNIGTYKFVSWYQQHPGKAPKVMIYEVSKRPSGVSNRFSGSKSGNTASLTISGLQAEDEADYYCVSYAGSGTLLFGGGTKLTVLGGSEGKSSGSGSESKSTGGSQVQLQQSGPGLVKPSQTLSLTCAISGDSVFNNNAAWSWIRQSPSRGLEWLGRTYYRSKWLYDYAVSVKSRITINPDTSKNQFSLQLNSVTPEDTAVYYCARGYSSSFDYWGQGTLVTVSSEPKSSDKTHTCPPCPAPEAAGGPSVFLFPPKPKDTLMISRTPEVTCVVVSVSHEDPEVKFNWYVDGVEVHNAKTKPREEQYNSTYRVVSVLTVLHQDWLNGKEYKCKVSNKALPAPIEKTISKAKGQPREPQVYVYPPSREEMTKNQVSLTCLVKGFYPSDIAVEWESNGQPENNYKTTPPVLDSDGSFALVSKLTVDKSRWQQGNVFSCSVMHEALHNHYTQKSLSLSPG
heavy: QVQLQQSGPGLVKPSQTLSLTCAISGDSVSSNRAAWNWIRQSPSRGLEWLGRTYYRSKWYNDYAVSVKSRITINPDTSKNQISLQLNSVTPEDTAVYYCARVRPGIPFDYWGQGTPVTVSSASTKGPSVFPLAPSSKSTSGGTAALGCLVKDYFPEPVTVSWNSGALTSGVHTFPAVLQSSGLYSLSSVVTVPSSSLGTQTYICNVNHKPSNTKVDKKVEPKSCDKTHTCPPCPAPEAAGGPSVFLFPPKPKDTLMISRTPEVTCVVVSVSHEDPEVKFNWYVDGVEVHNAKTKPREEQYNSTYRVVSVLTVLHQDWLNGKEYKCKVSNKALPAPIEKTISKAKGQPREPQVYVLPPSREEMTKNQVSLLCLVKGFYPSDIAVEWESNGQPENNYLTWPPVLDSDGSFFLYSKLTVDKSRWQQGNVFSCSVMHEALHNHYTQKSLSLSPG
light: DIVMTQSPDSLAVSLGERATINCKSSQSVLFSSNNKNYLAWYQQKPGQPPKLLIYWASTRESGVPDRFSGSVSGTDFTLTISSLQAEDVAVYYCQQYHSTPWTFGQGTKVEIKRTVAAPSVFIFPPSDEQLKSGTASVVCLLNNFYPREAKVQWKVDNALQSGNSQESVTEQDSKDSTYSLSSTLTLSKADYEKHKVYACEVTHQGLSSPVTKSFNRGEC
B4: HC3B235 (CD3B219-LH-scFv-Fc x MHGB738-Fab-Fc) (bispecific antibody, human IgG1, kappa, L234A L235A)
scFv: QTVVTQEPSLTVSPGGTVTLTCRSSTGAVTTSNYANWVQQKPGQAPRGLIGGTNKRAPGTPARFSGSLLGGKAALTLSGVQPEDEAEYYCALWYSNLWVFGGGTKLTVLGGSEGKSSGSGSESKSTGGSEVQLVESGGGLVQPGGSLRLSCAASGFTFNTYAMNWVRQAPGKGLEWVARIRSKYNNYATYYAASVKGRFTISRDDSKNSLYLQMNSLKTEDTAVYYCVRHGNFGNSYVSWFAYWGQGTLVTVSSEPKSSDKTHTCPPCPAPEAAGGPSVFLFPPKPKDTLMISRTPEVTCVVVSVSHEDPEVKFNWYVDGVEVHNAKTKPREEQYNSTYRVVSVLTVLHQDWLNGKEYKCKVSNKALPAPIEKTISKAKGQPREPQVYVYPPSREEMTKNQVSLTCLVKGFYPSDIAVEWESNGQPENNYKTTPPVLDSDGSFALVSKLTVDKSRWQQGNVFSCSVMHEALHNHYTQKSLSLSPG
heavy: QVQLQQSGPGLVKPSQTLSLTCAISGDSVSSNRAAWNWIRQSPSRGLEWLGRTYYRSKWYNDYAVSVKSRITINPDTSKNQISLQLNSVTPEDTAVYYCARVRPGIPFDYWGQGTPVTVSSASTKGPSVFPLAPSSKSTSGGTAALGCLVKDYFPEPVTVSWNSGALTSGVHTFPAVLQSSGLYSLSSVVTVPSSSLGTQTYICNVNHKPSNTKVDKKVEPKSCDKTHTCPPCPAPEAAGGPSVFLFPPKPKDTLMISRTPEVTCVVVSVSHEDPEVKFNWYVDGVEVHNAKTKPREEQYNSTYRVVSVLTVLHQDWLNGKEYKCKVSNKALPAPIEKTISKAKGQPREPQVYVLPPSREEMTKNQVSLLCLVKGFYPSDIAVEWESNGQPENNYLTWPPVLDSDGSFFLYSKLTVDKSRWQQGNVFSCSVMHEALHNHYTQKSLSLSPG
light: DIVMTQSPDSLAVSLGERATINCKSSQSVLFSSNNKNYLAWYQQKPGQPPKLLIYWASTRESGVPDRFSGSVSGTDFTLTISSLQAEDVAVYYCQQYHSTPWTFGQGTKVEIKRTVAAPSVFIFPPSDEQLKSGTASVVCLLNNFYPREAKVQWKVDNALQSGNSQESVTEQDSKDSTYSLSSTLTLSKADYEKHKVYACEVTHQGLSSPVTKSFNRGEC
B5: HC3B232 (CD3W246-LH-scFv-Fc x MHGB732-Fab-Fc) (bispecific antibody, human IgG1, kappa, L234A L235A)
scFv: DIQMTQSPSSLSASVGDRVTITCRARQSIGTAIHWYQQKPGKAPKLLIKYASESISGVPSRFSGSGSGTDFTLTISSVQPEDFATYYCQQSGSWPYTFGQGTKLEIKGGSEGKSSGSGSESKSTGGSEVQLVESGGGLVKPGGSLRLSCAASGFTFSRYNMNWVRQAPGKGLEWVSSISTSSNYIYYADSVKGRFTFSRDNAKNSLDLQMSGLRAEDTAIYYCTRGWGPFDYWGQGTLVTVSSEPKSSDKTHTCPPCPAPEAAGGPSVFLFPPKPKDTLMISRTPEVTCVVVSVSHEDPEVKFNWYVDGVEVHNAKTKPREEQYNSTYRVVSVLTVLHQDWLNGKEYKCKVSNKALPAPIEKTISKAKGQPREPQVYVYPPSREEMTKNQVSLTCLVKGFYPSDIAVEWESNGQPENNYKTTPPVLDSDGSFALVSKLTVDKSRWQQGNVFSCSVMHEALHNHYTQKSLSLSPGK
heavy: QVQLQQSGPGLVKPSQTLSLTCAISGDSVSSNSAAWNWIRQSPSRGLEWLGRTYYRSKWYNDYAVSVKSRITINPDTSKNQISLQLNSVTPEDTAVYYCAGDRRYGIVGLPFAYWGQGTLVTVSSASTKGPSVFPLAPSSKSTSGGTAALGCLVKDYFPEPVTVSWNSGALTSGVHTFPAVLQSSGLYSLSSVVTVPSSSLGTQTYICNVNHKPSNTKVDKKVEPKSCDKTHTCPPCPAPEAAGGPSVFLFPPKPKDTLMISRTPEVTCVVVSVSHEDPEVKFNWYVDGVEVHNAKTKPREEQYNSTYRVVSVLTVLHQDWLNGKEYKCKVSNKALPAPIEKTISKAKGQPREPQVYVLPPSREEMTKNQVSLLCLVKGFYPSDIAVEWESNGQPENNYLTWPPVLDSDGSFFLYSKLTVDKSRWQQGNVFSCSVMHEALHNHYTQKSLSLSPG
light: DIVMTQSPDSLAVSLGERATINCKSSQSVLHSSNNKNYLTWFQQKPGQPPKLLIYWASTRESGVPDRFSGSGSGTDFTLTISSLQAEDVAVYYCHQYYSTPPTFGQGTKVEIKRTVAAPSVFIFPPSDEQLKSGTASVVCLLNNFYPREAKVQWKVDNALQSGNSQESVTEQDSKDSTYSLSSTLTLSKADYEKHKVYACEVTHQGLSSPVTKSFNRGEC
B6: HC3B231 (CD3B450-LH-scFv-Fc x MHGB732-Fab-Fc) (bispecific antibody, human IgG1, kappa, L234A L235A)
scFv: QSALTQPASVSGSPGQSITISCTGTSSNIGTYKFVSWYQQHPGKAPKVMIYEVSKRPSGVSNRFSGSKSGNTASLTISGLQAEDEADYYCVSYAGSGTLLFGGGTKLTVLGGSEGKSSGSGSESKSTGGSQVQLQQSGPGLVKPSQTLSLTCAISGDSVFNNNAAWSWIRQSPSRGLEWLGRTYYRSKWLYDYAVSVKSRITINPDTSKNQFSLQLNSVTPEDTAVYYCARGYSSSFDYWGQGTLVTVSSEPKSSDKTHTCPPCPAPEAAGGPSVFLFPPKPKDTLMISRTPEVTCVVVSVSHEDPEVKFNWYVDGVEVHNAKTKPREEQYNSTYRVVSVLTVLHQDWLNGKEYKCKVSNKALPAPIEKTISKAKGQPREPQVYVYPPSREEMTKNQVSLTCLVKGFYPSDIAVEWESNGQPENNYKTTPPVLDSDGSFALVSKLTVDKSRWQQGNVFSCSVMHEALHNHYTQKSLSLSPG
heavy: QVQLQQSGPGLVKPSQTLSLTCAISGDSVSSNSAAWNWIRQSPSRGLEWLGRTYYRSKWYNDYAVSVKSRITINPDTSKNQISLQLNSVTPEDTAVYYCAGDRRYGIVGLPFAYWGQGTLVTVSSASTKGPSVFPLAPSSKSTSGGTAALGCLVKDYFPEPVTVSWNSGALTSGVHTFPAVLQSSGLYSLSSVVTVPSSSLGTQTYICNVNHKPSNTKVDKKVEPKSCDKTHTCPPCPAPEAAGGPSVFLFPPKPKDTLMISRTPEVTCVVVSVSHEDPEVKFNWYVDGVEVHNAKTKPREEQYNSTYRVVSVLTVLHQDWLNGKEYKCKVSNKALPAPIEKTISKAKGQPREPQVYVLPPSREEMTKNQVSLLCLVKGFYPSDIAVEWESNGQPENNYLTWPPVLDSDGSFFLYSKLTVDKSRWQQGNVFSCSVMHEALHNHYTQKSLSLSPG
light: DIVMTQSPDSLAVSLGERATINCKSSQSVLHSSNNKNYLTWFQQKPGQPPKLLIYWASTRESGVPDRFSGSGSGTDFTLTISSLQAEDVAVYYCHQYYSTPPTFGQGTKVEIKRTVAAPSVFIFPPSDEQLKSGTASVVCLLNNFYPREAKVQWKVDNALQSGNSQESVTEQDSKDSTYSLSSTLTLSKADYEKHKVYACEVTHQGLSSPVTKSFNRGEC

Each binder was assayed against HLA-G on NCI-H2009-b2m target cells (human, UniProt P17693 25-338) (assay: cell-based or functional assay).

Row | Binder | Cytotoxicity, EC50 (M); T cell-mediated cytotoxicity against NCI-H2009-b2m cells, 72 hr, E:T 3:1 [M]
1 | B1 | 1.73e-11
2 | B2 | 1.33e-10
3 | B3 | 4.54e-09
4 | B4 | 8.37e-11
5 | B5 | 6.77e-12
6 | B6 | 1.26e-10
